Data set [1] deals with Hyi (PA1501), putative hydroxypyruvate isomerase from Pseudomonas aeruginosa (P. aeruginosa). Description: AUC; analytical ultracentrifugation, sedimentation velocity (AUC-SV), of each purified protein alone.
The target in data set [2] is T1, Gcl (Pseudomonas aeruginosa, UniProt Q9I3L0).
T1 construct: full-length ORF in pET-19m, N-terminal His6 tag cut with TEV protease, expressed in E. coli Rosetta, Ni-NTA
T1 sequence (Q9I3L0 1-591): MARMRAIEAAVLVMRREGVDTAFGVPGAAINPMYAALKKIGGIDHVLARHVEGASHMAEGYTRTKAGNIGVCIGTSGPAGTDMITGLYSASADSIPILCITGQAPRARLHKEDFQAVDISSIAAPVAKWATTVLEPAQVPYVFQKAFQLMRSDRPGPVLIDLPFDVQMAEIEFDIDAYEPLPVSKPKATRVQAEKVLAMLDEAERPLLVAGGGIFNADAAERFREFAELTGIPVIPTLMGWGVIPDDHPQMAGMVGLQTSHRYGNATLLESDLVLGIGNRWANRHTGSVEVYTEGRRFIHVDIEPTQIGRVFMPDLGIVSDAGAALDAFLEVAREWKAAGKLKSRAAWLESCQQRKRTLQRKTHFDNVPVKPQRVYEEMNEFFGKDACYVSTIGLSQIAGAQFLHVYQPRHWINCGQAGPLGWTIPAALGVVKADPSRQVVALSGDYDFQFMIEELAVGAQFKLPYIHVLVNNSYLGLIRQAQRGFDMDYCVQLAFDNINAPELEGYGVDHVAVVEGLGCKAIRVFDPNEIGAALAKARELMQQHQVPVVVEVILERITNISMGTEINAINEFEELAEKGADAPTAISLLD
Nature of the data set: GlxR-coupled NADH oxidation with added FAD; yellow protein ([…] nm). The format is biochemical. The settings on record: 100 µM FAD roughly doubled activity; 37 °C.

The target of data set [3] is T2, Hyi (Pseudomonas aeruginosa, UniProt Q9I3L1).
T2 construct: gene PA1501; full-length ORF in pET-19m, N-terminal His6 tag (cleavage clearly told only for Gcl), expressed in E. coli Rosetta, Ni-NTA; dimer in solution
T2 sequence (Q9I3L1 1-260): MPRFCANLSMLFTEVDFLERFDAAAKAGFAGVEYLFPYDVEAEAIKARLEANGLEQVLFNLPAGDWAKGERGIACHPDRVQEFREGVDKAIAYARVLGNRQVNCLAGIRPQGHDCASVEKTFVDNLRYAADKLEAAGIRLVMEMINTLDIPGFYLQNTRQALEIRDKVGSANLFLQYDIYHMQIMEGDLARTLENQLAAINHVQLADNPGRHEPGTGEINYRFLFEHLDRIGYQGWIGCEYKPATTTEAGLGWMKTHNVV
Nature of the data set: 1H-NMR, disappearance of hydroxypyruvate peaks. It counts as biochemical. The settings on record: 50 mM sodium phosphate in D2O, 1 mM MgCl2, pD 7.0; 37 °C; likely isomerization with H/D exchange, product peak not seen.

Data set [4] concerns the target T1, Gcl. Description: 1H-NMR, decrease of hydrated glyoxylate peak. The format is biochemical. The settings on record: 50 mM sodium phosphate in D2O, 1 mM MgCl2, pD 7.0; 37 °C; 22 h; no Hyi.
Substrate in data set [5]: O=C(O)C(=O)CO
Description: purified protein. The format is biochemical, Pseudomonas aeruginosa. The settings on record: 0.2 mM NADH, 20 mM MOPS, pH 7.5, 37 °C, h = 1.6 ± 0.2, some TSA may be present by tautomerization, no Hyi.

Substrate in data set [6]: O=CC(O)C(=O)O
Nature of the data set: purified protein. The format is biochemical, Pseudomonas aeruginosa. The settings on record: TSA made in situ by Gcl from 0-10 mM glyoxylate (concentration varied was glyoxylate, so apparent), 0.2 mM NADH, 20 mM MOPS, 37 °C, no Hyi.

Data set [7] deals with the molecule itself. Description: AUC; analytical ultracentrifugation, sedimentation velocity (AUC-SV), of each purified protein alone.

With “Hyi (PA1501), putative hydroxypyruvate isomerase from Pseudomonas aeruginosa (enzyme)”, the stoichiometry N in data set [1] amounted to 2.
With `Cc1cc2nc3c(=O)[nH]c(=O)nc-3n(C[C@H](O)[C@H](O)[C@H](O)COP(=O)(O)OP(=O)(O)OC[C@H]3O[C@@H](n4cnc5c(N)ncnc54)[C@H](O)[C@@H]3O)c2cc1C` [flavin adenine dinucleotide], the “GlxR-coupled NADH oxidation with added FAD; yellow protein (445 nm)” value in data set [2] is given as “FAD supplementation roughly doubled the enzyme activity”.
Regarding `O=C(O)C(=O)CO` [hydroxypyruvate], in data set [3], the “1H-NMR, disappearance of hydroxypyruvate peaks” value is listed as “In the presence of Hyi, both hydroxypyruvate peaks had lessened in intensity”.
As to `O=CC(=O)O` [glyoxylate], the “1H-NMR, decrease of hydrated glyoxylate peak” value in data set [4] is listed as “In the presence of Gcl, this hydrated glyoxylate peak slowly diminished in intensity”.

B1: GlxR (PA1500), tartronate semialdehyde (TSA) reductase from Pseudomonas aeruginosa (enzyme, P. aeruginosa, UniProt Q9I3L2 1-296, looked up)
chain: MAKIGFIGTGIMGKPMAQNLQKAGHSLFLSTHHDAAPADLLEAGAIALANPKEVAQEAEFIIVMVPDTPQVEDVLFRKDGIAEGAGPNKVVIDMSSISPTATKGFAEKIKATGAQYLDAPVSGGEVGAKAATLSIMVGGCPNTFERALPLFQAMGKNITRVGGNGDGQTAKVANQIIVALNIQAVAEALLFAARNGADPAKVREALMGGFASSRILEVHGERMVKGTFDPGFRISLHQKDLNLALAGARELNLNLPNTANAQQVFSTCAAIGGSNWDHSALIKGLEHMANFSIRDE
notes: GlxR, tartronate semialdehyde reductase, ORF PA1500 of P. aeruginosa strain PAO1; the ORF was tagged and over-expressed; The methods state TEV cleavage of the His6 tag 'For Gcl' but then speak of 'each of the over-expressed proteins'; whether the tag of GlxR was removed is not clear; For crystallisation the elution and dialysis buffers differed (PBS based); also called apo-GlxR; GlxRα; source: E. …
Regarding B1, in data set [5], the K0.5 was 16.7 mM and the kcat was determined as 33.5 s⁻¹. In data set [6], the Km was 800 µM and the kcat was found to be 34.7 s⁻¹. For the same molecule, the “stoichiometry N” value in data set [7] turned out to be 4.

In general, stoichiometry N refers to the number of molecules, sites or subunits per partner or assembly. One may read the kcat as the maximal rate divided by the concentration of active sites. Broadly, the Km is the concentration of substrate that gives half-maximal velocity.
